Assay results: patent US20220143024A1, “METHODS OF USING IMIPRIDONES” (Board of Regents, The University of Texas System, priority 2019, published 2022)

Legend:
Test in all cases: BioID-MS
MTIF2 (human) = MTIF2 (human) (UniProt P46199)
LYRM4 (human) = LYRM4 (human) (UniProt Q9HD34)
SFXN4 (human) = SFXN4 (human) (UniProt Q6P4A7)
ACAD10 (human) = ACAD10 (human) (UniProt Q6JQN1)
FECH (human) = FECH (human) (UniProt P22830)
MRPS23 (human) = MRPS23 (human) (UniProt Q9Y3D9)
COX5A (human) = COX5A (human) (UniProt P20674)
RPS15A (human) = RPS15A (human) (UniProt P62244)
MRPS36 (human) = MRPS36 (human) (UniProt P82909)
PYCR2 (human) = PYCR2 (human) (UniProt Q96C36)
GATB (human) = GATB (human) (UniProt O75879)
TST (human) = TST (human) (UniProt Q16762)
MRPL44 (human) = MRPL44 (human) (UniProt Q9H9J2)
GBAS (human) = GBAS (human) (UniProt O75323)
CPOX (human) = CPOX (human) (UniProt P36551)
AFG3L2 (human) = AFG3L2 (human) (UniProt Q9Y4W6)
SUCLG2 (human) = SUCLG2 (human) (UniProt Q96I99)
ABCB7 (human) = ABCB7 (human) (UniProt O75027)
ATPAF1 (human) = ATPAF1 (human) (UniProt Q5TC12)
GCDH (human) = GCDH (human) (UniProt Q92947)
PIN1 (human) = PIN1 (human) (UniProt Q13526)
PYCR1 (human) = PYCR1 (human) (UniProt P32322)
GLRX5 (human) = GLRX5 (human) (UniProt Q86SX6)
NIPSNAP2 (human) = NIPSNAP2 (human) (UniProt O75323)
ACO2 (human) = ACO2 (human) (UniProt Q99798)
DHTKD1 (human) = DHTKD1 (human) (UniProt Q96HY7)
SUCLA2 (human) = SUCLA2 (human) (UniProt Q9P2R7)
NDUFAF4 (human) = NDUFAF4 (human) (UniProt Q9P032)
GLS (human) = GLS (human) (UniProt O94925)
TBRG4 (human) = TBRG4 (human) (UniProt Q969Z0)
HIBCH (human) = HIBCH (human) (UniProt Q6NVY1)
MRPS28 (human) = MRPS28 (human) (UniProt Q9Y2Q9)
PDK3 (human) = PDK3 (human) (UniProt Q15120)
XPNPEP3 (human) = XPNPEP3 (human) (UniProt Q9NQH7)
SDHA (human) = SDHA (human) (UniProt P31040)
BCKDHB (human) = BCKDHB (human) (UniProt P21953)
NFUl (human) = NFUl (human) (UniProt Q9UMS0)
HSD17B10 (human) = HSD17B10 (human) (UniProt Q99714)
EFHA1 (human) = EFHA1 (human) (UniProt Q8IYU8)
ALDH4A1 (human) = ALDH4A1 (human) (UniProt P30038)
NDUFAF2 (human) = NDUFAF2 (human) (UniProt Q8N183)
SPRYD4 (human) = SPRYD4 (human) (UniProt Q8WW59)
POLG (human) = POLG (human) (UniProt P54098)
IBA57 (human) = IBA57 (human) (UniProt Q5T440)
IDH3A (human) = IDH3A (human) (UniProt P50213)
ACSS1 (human) = ACSS1 (human) (UniProt Q9NUB1)
ADCK3 (human) = ADCK3 (human) (UniProt Q8NI60)
MTHFD1L (human) = MTHFD1L (human) (UniProt Q6UB35)
NDUFS7 (human) = NDUFS7 (human) (UniProt O75251)
IDE (human) = IDE (human) (UniProt P14735)
CLYBL (human) = CLYBL (human) (UniProt Q8N0X4)
GRSF1 (human) = GRSF1 (human) (UniProt Q12849)
HSPE1 (human) = HSPE1 (human) (UniProt P61604)
NIPSNAP1 (human) = NIPSNAP1 (human) (UniProt Q9BPW8)
PTPMT1 (human) = PTPMT1 (human) (UniProt Q8WUK0)
ABCB10 (human) = ABCB10 (human) (UniProt Q9NRK6)
PPIF (human) = PPIF (human) (UniProt P30405)
EARS2 (human) = EARS2 (human) (UniProt Q5JPH6)

Log2 Fold change (vs control) (MTIF2 (human)): 0.3 log2
Log2 Fold change (vs control) (LYRM4 (human)): 0.52 log2
Log2 Fold change (vs control) (SFXN4 (human)): -0.38 log2
Log2 Fold change (vs control) (ACAD10 (human)): -4.09 log2
Log2 Fold change (vs control) (FECH (human)): -0.68 log2
Log2 Fold change (vs control) (MRPS23 (human)): -0.22 log2
Log2 Fold change (vs control) (COX5A (human)): 0.45 log2
Log2 Fold change (vs control) (RPS15A (human)): -0.45 log2
Log2 Fold change (vs control) (MRPS36 (human)): 0.11 log2
Log2 Fold change (vs control) (PYCR2 (human)): 0.26 log2
Log2 Fold change (vs control) (GATB (human)): -3.1 log2
Log2 Fold change (vs control) (TST (human)): -0.51 log2
Log2 Fold change (vs control) (MRPL44 (human)): 1.13 log2
Log2 Fold change (vs control) (GBAS (human)): -0.38 log2
Log2 Fold change (vs control) (CPOX (human)): 0.88 log2
Log2 Fold change (vs control) (AFG3L2 (human)): 0.43 log2
Log2 Fold change (vs control) (SUCLG2 (human)): -0.49 log2
Log2 Fold change (vs control) (ABCB7 (human)): -0.65 log2
Log2 Fold change (vs control) (ATPAF1 (human)): 0.59 log2
Log2 Fold change (vs control) (GCDH (human)): 1 log2
Log2 Fold change (vs control) (PIN1 (human)): -3.81 log2
Log2 Fold change (vs control) (PYCR1 (human)): 1.08 log2
Log2 Fold change (vs control) (GLRX5 (human)): -0.26 log2
Log2 Fold change (vs control) (NIPSNAP2 (human)): 0.61 log2
Log2 Fold change (vs control) (ACO2 (human)): -0.29 log2
Log2 Fold change (vs control) (DHTKD1 (human)): -0.12 log2
Log2 Fold change (vs control) (SUCLA2 (human)): -0.06 log2
Log2 Fold change (vs control) (NDUFAF4 (human)): 1.06 log2
Log2 Fold change (vs control) (GLS (human)): 0.21 log2
Log2 Fold change (vs control) (TBRG4 (human)): 0.28 log2
Log2 Fold change (vs control) (HIBCH (human)): 0.35 log2
Log2 Fold change (vs control) (MRPS28 (human)): -0.49 log2
Log2 Fold change (vs control) (PDK3 (human)): 0.6 log2
Log2 Fold change (vs control) (XPNPEP3 (human)): -0.31 log2
Log2 Fold change (vs control) (SDHA (human)): 0.34 log2
Log2 Fold change (vs control) (BCKDHB (human)): 0.79 log2
Log2 Fold change (vs control) (NFUl (human)): -0.32 log2
Log2 Fold change (vs control) (HSD17B10 (human)): 0.72 log2
Log2 Fold change (vs control) (EFHA1 (human)): -4.17 log2
Log2 Fold change (vs control) (ALDH4A1 (human)): -0.81 log2
Log2 Fold change (vs control) (NDUFAF2 (human)): -0.15 log2
Log2 Fold change (vs control) (SPRYD4 (human)): 0.22 log2
Log2 Fold change (vs control) (POLG (human)): 0.26 log2
Log2 Fold change (vs control) (IBA57 (human)): 1.65 log2
Log2 Fold change (vs control) (IDH3A (human)): -0.06 log2
Log2 Fold change (vs control) (ACSS1 (human)): -1.46 log2
Log2 Fold change (vs control) (ADCK3 (human)): -0.3 log2
Log2 Fold change (vs control) (MTHFD1L (human)): 0.25 log2
Log2 Fold change (vs control) (NDUFS7 (human)): -0.08 log2
Log2 Fold change (vs control) (IDE (human)): -0.15 log2
Log2 Fold change (vs control) (CLYBL (human)): -3.17 log2
Log2 Fold change (vs control) (GRSF1 (human)): 1.91 log2
Log2 Fold change (vs control) (HSPE1 (human)): 0.92 log2
Log2 Fold change (vs control) (NIPSNAP1 (human)): 0.11 log2
Log2 Fold change (vs control) (PTPMT1 (human)): -0.04 log2
Log2 Fold change (vs control) (ABCB10 (human)): -1.32 log2
Log2 Fold change (vs control) (PPIF (human)): 0.09 log2
Log2 Fold change (vs control) (EARS2 (human)): -0.17 log2
Substance: FlagBirA-ClpP (Y118A) (from UniProt P06709 1-321; Q16740 57-277) (enzyme)
